According to US5108916A, “Process for stereoselectively hydrolyzing, transesterifying or esterifying with immobilized isozyme of lipase from Candida rugosa” (priority 1989, dated 1992):

What was measured:
[1] = Hydrolysis of R,S-HPPA methyl ester by free lipase or isozyme in aqueous buffer, R and S acids by HPLC; assay type: biochemical
Procedure: Lipase MY (Meito Sangyo), 340mg, 4g of R,S-HPPA methyl ester, and 200ml of 20mM KH2 PO4 (adjusted to pH 6.5) were mixed, with shaking, for 5.5 hours.
Analysis of the acid formed was carried out by extraction of the ester after adjustment of the aqueous solution to pH 6.5 (a slight pH drop occurs on hydrolysis) with CH2 Cl2 followed by adjusting the pH to 2 and extraction of the acid with ethyl acetate. The solution was evaporated to dryness, taken up in water and analyzed by HPLC with a Macherey Nagel-Duren Resolvosil BSA- column using 5% n-propanol, 10mM KH2 PO4, pH 5 at 2.7ml/min with detection at 220nm. At that time 35% of the R, S-ester was converted to the acid. The ratio of R and S acids was 94% R and 6% S.
Lipase MY (Meito Sangyo), Candida lipase B (Biocatalyst, Ltd), lipase OF (Meito Sangyo), and Lipase AY (Amano) were compared for stereoselectivity for production of R-HPPA from R,S-HPPA methyl ester. The preparations, in amounts shown in Table I, were added to 50 ml of 20 mM HPPA methyl ester in 50 mM KH2 PO4 pH 6.5. […] The ratio of R to S acid was determined by HPLC as described in Example 3 at approximately 16% hydrolysis of the ester.
Two hundred mls of KH2 PO4 (pH 6.5) was combined with 400 mg HPPA-Me and 500 units of T. californica acetylcholine esterase. The reaction mixture was shaken for 24 hours and then sampled and analyzed as in Example 3. […]

[2] = Hydrolysis of ketoprofen esters by lipases, acid by HPLC, ee via diastereomeric amides; assay type: biochemical
Procedure: To a solution of 9ml of 100mM ammonium phosphate (pH 5.5) in 50 ml Erlenmeyer flask a weighed amount of ester (either directly or dissolved in 200 ul DMF) was added. A solution of the weighed amount of enzyme in 1 ml of the same buffer was added. The mixture was agitated in a rotary shaker at 250 RPM at 35° C. typically for 22 hours. The reaction mixture was acidified with 8 drops 6(N) HCl to pH 1.5-2.0, extracted with CHCl3 (2×10 ml). The CHCl3 solution was analyzed by HPLC to determine the percent of acid produced in the hydrolysis.
The CHCl3 extract (5 ml) of the hydrolysis reaction was dried over anhydrous Na2 SO4 and filtered. The filtrate was cooled to 0° C. in stoppered vials and 100 ul of N-methylmorpholine, followed by 100 ul of isobutyl chloroformate were added. After gently shaking at 0° C. for 10 minutes, 100 ul of D-(+)-1-phenylethylamine was added and gently shaking at 0° C. was continued for 5 minutes. The reaction mixture was then shaken at room temperature for 5 minutes. The reaction mixture was washed with water (5 ml), 1(N) HCl (5 ml) and again with water (5 ml). The diastereomeric amides produced were then analyzed by HPLC on a column as specifically noted to determine the ee (%S-%R) of the acid produced by enzymatic hydrolysis of the esters.
Ketoprofen esters (50 mg) were hydrolyzed as above. HPLC analysis for the amount of acid produced for the ketoprofen monoglyceride and ketoprofen ethylene glycol ester hydrolysis were performed on Partisil 5 ODS-3 RAC column (9.4 mm×100 mm, Whatman) using CH3 OH: 10mM (NH4)H2 PO4 (60:40) at 4 ml/min and monitoring at 254 nm. HPLC analysis of the acid produced in the hydrolysis of the other esters were done on ODS-3 RAC column using CH3 OH: 10 mM (NH4)H2 PO4 (80:20) at 2ml/min and monitoring at 254 nm. The enantiomeric excess of the ketoprofen produced for each hydrolysis was determined by analysis of the amides by HPLC on ODS-3 RAC column using CH3 OH:10 mM (NH4)H2 PO4 (60:40) at 4 ml/min and monitoring at 254 nm. […]
To determine whether oleic acid could be used to enhance the rate/selectivity using other lipase and/or substrates, the following experiment was performed. 50 mg of either the diethylene glycol ester, triethylene glycol monomethyl ester, monoglyceride ester, or ethylene glycol ester was placed in 50 ml Erlenmeyer flasks. To this was added 50 mg of Lipase MY, 50 mg of the Mucor miehei lipase, 2.5 mg of the Candida cylindracea lipase (Biocatalyst), or 5 mg of lipase OF, all in 1 ml of buffer. 10 ul of pig liver esterase was also used. Oleic acid was added to the flasks at 200 ul. Buffer was added to a final volume of 10 ml, and the flasks were incubated at 35.C, 250 rpm, acidified, and extracted with CHCl3 and analyzed by HPLC as in Example 18.

[3] = diethylene glycol ester, enzyme alone
[4] = ethylene glycol ester, + oleic acid
[5] = ethylene glycol ester, enzyme alone
[6] = monoglyceride ester, + oleic acid
[7] = monoglyceride ester, enzyme alone
[8] = monomethyl triethylene glycol ester, + oleic acid
[9] = monomethyl triethylene glycol ester, enzyme alone

B1: acetylcholinesterase of T. californica: acetylcholine esterase from Torpedo californica (protein, UniProt P04058 22-564, looked up)
Acetylcholinesterase: DDHSELLVNTKSGKVMGTRVPVLSSHISAFLGIPFAEPPVGNMRFRRPEPKKPWSGVWNASTYPNNCQQYVDEQFPGFSGSEMWNPNREMSEDCLYLNIWVPSPRPKSTTVMVWIYGGGFYSGSSTLDVYNGKYLAYTEEVVLVSLSYRVGAFGFLALHGSQEAPGNVGLLDQRMALQWVHDNIQFFGGDPKTVTIFGESAGGASVGMHILSPGSRDLFRRAILQSGSPNCPWASVSVAEGRRRAVELGRNLNCNLNSDEELIHCLREKKPQELIDVEWNVLPFDSIFRFSFVPVIDGEFFPTSLESMLNSGNFKKTQILLGVNKDEGSFFLLYGAPGFSKDSESKISREDFMSGVKLSVPHANDLGLDAVTLQYTDWMDDNNGIKNRDGLDDIVGDHNVICPLMHFVNKYTKFGNGTYLYFFNHRASNLVWPEWMGVIHGYEIEFVFGLPLVKELNYTAEEEALSRRIMHYWATFAKTGNPNEPHSQESKWPLFTTKEQKFIDLNTEPMKVHQRLRVQMCVFWNQFLPKLLNATACDGELSS
stereoselective hydrolysis of HPPA-Me to R-HPPA [1]: did not stereoselectively hydrolyze | hydrolyzing activity on HPPA-Me ([1]; 500 units, 400 mg HPPA-Me, pH 6.5, 24 hours): Very little hydrolyzing activity

B2: Mucor miehei: Mucor miehei lipase (protein, UniProt P19515 95-363, looked up)
Lipase: SIDGGIRAATSQEINELTYYTTLSANSYCRTVIPGATWDCIHCDATEDLKIIKTWSTLIYDTNAMVARGDSEKTIYIVFRGSSSIRNWIADLTFVPVSYPPVSGTKVHKGFLDSYGEVQNELVATVLDQFKQYPSYKVAVTGHSLGGATALLCALDLYQREEGLSSSNLFLYTQGQPRVGDPAFANYVVSTGIPYRRTVNERDIVPHLPPAAFGFLHAGEEYWITDNSPETVQVCTSDLETSDCSNSIVPFTSVLDHLSYFGINTGLCT
% ee (R = R-acid) ([2]; diethylene glycol ester, + oleic acid): 2R | % Acid ([2]; diethylene glycol ester, + oleic acid 200 ul): 20% | % Acid [2, 3]: 24% | % ee (R = R-acid) [2, 3]: 41R | % Acid [2, 4]: 10% | % ee (R = R-acid) [2, 4]: 42R | % Acid [2, 5]: 17% | % ee (R = R-acid) [2, 5]: 54R | % Acid [2, 6]: 4% | % ee (R = R-acid) [2, 6]: 35R | % Acid [2, 7]: 20% | % ee (R = R-acid) [2, 7]: 40R | % Acid [2, 8]: 6% | % ee (R = R-acid) [2, 8]: 1R | % Acid [2, 9]: 26% | % ee (R = R-acid) [2, 9]: 36R
